# Data reported in patent publication US20160304570A1.
# Where two headings read alike, the source gives them in different places.
# Columns and labels:
# Assay in all cases: cell-based or functional assay
# [1] = biological target: human Nav1.5 voltage-gated sodium channel (human) (UniProt Q14524)
# [2] = biological target: human voltage-gated sodium channel Nav1.3 (human) (UniProt Q9NY46)
# [3] = biological target: human voltage-gated sodium channel Nav1.5 (human) (UniProt Q14524)
# [4] = biological target: human voltage-gated sodium channel Nav1.7 (human) (UniProt Q15858)
# [5] = biological target: human voltage-gated sodium channel Nav1.3 (human) (UniProt Q9NY46); remark: listed apart in the source
# [6] = biological target: human voltage-gated sodium channel Nav1.3 (human) (UniProt Q9NY46); remark: listed apart in the source
# [7] = biological target: human voltage-gated sodium channel Nav1.5 (human) (UniProt Q14524); remark: listed apart in the source
# [8] = biological target: human voltage-gated sodium channel Nav1.7 (human) (UniProt Q15858); remark: listed apart in the source
# [9] = biological target: human voltage-gated sodium channel Nav1.3 (human) (UniProt Q9NY46); remark: listed apart in the source
# [10] = biological target: human voltage-gated sodium channel Nav1.5 (human) (UniProt Q14524); remark: listed apart in the source
# [11] = biological target: human voltage-gated sodium channel Nav1.7 (human) (UniProt Q15858); remark: listed apart in the source
# [12] = biological target: human voltage-gated sodium channel Nav1.3 (human) (UniProt Q9NY46); remark: listed apart in the source
# [13] = biological target: human voltage-gated sodium channel Nav1.5 (human) (UniProt Q14524); remark: listed apart in the source
# [14] = biological target: human voltage-gated sodium channel Nav1.7 (human) (UniProt Q15858); remark: listed apart in the source
# [15] = biological target: human voltage-gated sodium channel Nav1.3 (human) (UniProt Q9NY46); remark: listed apart in the source
# [16] = biological target: human voltage-gated sodium channel Nav1.5 (human) (UniProt Q14524); remark: listed apart in the source
# [17] = biological target: human voltage-gated sodium channel Nav1.7 (human) (UniProt Q15858); remark: listed apart in the source
# [18] = biological target: human Nav1.3 voltage-gated sodium channel (human) (UniProt Q9NY46)
# [19] = biological target: human Nav1.5 voltage-gated sodium channel (human) (UniProt Q14524); remark: listed apart in the source
# [20] = biological target: human Nav1.7 voltage-gated sodium channel (human) (UniProt Q15858)
# [21] = biological target: human ERG (hERG) potassium channel (human) (UniProt Q12809)
# human Nav1.3 (human) = human Nav1.3 (human) (UniProt Q9NY46)
# [22] = biological target: human Nav1.3 voltage-gated sodium channel (human) (UniProt Q9NY46); remark: listed apart in the source
# human Nav1.5 (human) = human Nav1.5 (human) (UniProt Q14524)
# human Nav1.7 (human) = human Nav1.7 (human) (UniProt Q15858)
# [23] = biological target: human Nav1.7 voltage-gated sodium channel (human) (UniProt Q15858); remark: listed apart in the source
# [24] = biological target: human voltage-gated sodium channel Nav1.3 (human) (UniProt Q9NY46); remark: listed apart in the source
# [25] = biological target: human voltage-gated sodium channel Nav1.5 (human) (UniProt Q14524); remark: listed apart in the source
# [26] = biological target: human voltage-gated sodium channel Nav1.7 (human) (UniProt Q15858); remark: listed apart in the source
# [27] = biological target: human Nav1.4 voltage-gated sodium channel (human) (UniProt P35499)
# [28] = biological target: human voltage-gated sodium channel Nav1.4 (human) (UniProt P35499)
# human voltage-gated sodium channel Nav1.4 (human), sequence (P35499 whole entry): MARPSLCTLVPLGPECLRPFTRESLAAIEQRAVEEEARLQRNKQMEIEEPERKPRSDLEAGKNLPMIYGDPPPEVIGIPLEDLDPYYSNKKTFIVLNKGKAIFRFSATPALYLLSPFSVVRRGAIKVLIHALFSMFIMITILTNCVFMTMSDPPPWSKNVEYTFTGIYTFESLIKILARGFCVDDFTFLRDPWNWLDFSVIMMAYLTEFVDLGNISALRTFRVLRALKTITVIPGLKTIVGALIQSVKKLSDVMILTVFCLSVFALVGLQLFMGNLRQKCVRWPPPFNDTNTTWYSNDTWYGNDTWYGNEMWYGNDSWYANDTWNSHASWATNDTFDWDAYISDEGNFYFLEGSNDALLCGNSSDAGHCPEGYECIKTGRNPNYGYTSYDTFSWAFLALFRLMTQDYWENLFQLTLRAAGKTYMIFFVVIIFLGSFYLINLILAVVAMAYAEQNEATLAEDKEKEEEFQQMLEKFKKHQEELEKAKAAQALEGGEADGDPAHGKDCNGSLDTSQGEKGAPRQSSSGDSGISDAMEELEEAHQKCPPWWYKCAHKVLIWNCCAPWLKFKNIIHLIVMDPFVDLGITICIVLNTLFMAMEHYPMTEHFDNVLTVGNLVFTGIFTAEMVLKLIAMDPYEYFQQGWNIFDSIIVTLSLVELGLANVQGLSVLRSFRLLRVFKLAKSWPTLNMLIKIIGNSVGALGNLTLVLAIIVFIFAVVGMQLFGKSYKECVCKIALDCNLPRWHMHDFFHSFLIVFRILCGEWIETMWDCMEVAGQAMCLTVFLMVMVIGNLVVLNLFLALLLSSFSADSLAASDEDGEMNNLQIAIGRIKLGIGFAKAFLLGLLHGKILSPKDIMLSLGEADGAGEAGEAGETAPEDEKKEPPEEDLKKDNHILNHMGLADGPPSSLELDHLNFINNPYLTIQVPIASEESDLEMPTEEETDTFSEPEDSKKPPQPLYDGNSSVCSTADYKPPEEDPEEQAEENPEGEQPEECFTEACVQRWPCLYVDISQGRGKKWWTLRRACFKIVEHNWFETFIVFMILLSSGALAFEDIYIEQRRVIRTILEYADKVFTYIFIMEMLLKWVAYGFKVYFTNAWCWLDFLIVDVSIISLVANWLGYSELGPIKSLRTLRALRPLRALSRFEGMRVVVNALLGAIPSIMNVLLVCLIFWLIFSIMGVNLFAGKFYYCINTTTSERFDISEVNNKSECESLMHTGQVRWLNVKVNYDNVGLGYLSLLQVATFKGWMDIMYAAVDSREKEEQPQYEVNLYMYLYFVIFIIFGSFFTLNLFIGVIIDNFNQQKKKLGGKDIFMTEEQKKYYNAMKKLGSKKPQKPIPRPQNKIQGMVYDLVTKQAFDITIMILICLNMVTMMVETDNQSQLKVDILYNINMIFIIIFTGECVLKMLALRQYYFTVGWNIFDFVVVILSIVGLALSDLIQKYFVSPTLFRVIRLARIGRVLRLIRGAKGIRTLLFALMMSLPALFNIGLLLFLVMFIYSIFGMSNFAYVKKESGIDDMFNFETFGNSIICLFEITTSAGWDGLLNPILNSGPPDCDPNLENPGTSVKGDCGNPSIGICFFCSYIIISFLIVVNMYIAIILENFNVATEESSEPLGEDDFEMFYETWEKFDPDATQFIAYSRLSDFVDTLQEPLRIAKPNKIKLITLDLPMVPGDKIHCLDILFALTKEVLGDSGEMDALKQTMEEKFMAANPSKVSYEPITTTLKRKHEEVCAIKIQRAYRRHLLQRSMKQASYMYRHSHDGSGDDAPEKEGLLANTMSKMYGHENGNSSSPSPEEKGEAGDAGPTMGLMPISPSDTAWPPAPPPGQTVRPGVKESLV
# human voltage-gated sodium channel Nav1.3 (human), sequence (Q9NY46 whole entry): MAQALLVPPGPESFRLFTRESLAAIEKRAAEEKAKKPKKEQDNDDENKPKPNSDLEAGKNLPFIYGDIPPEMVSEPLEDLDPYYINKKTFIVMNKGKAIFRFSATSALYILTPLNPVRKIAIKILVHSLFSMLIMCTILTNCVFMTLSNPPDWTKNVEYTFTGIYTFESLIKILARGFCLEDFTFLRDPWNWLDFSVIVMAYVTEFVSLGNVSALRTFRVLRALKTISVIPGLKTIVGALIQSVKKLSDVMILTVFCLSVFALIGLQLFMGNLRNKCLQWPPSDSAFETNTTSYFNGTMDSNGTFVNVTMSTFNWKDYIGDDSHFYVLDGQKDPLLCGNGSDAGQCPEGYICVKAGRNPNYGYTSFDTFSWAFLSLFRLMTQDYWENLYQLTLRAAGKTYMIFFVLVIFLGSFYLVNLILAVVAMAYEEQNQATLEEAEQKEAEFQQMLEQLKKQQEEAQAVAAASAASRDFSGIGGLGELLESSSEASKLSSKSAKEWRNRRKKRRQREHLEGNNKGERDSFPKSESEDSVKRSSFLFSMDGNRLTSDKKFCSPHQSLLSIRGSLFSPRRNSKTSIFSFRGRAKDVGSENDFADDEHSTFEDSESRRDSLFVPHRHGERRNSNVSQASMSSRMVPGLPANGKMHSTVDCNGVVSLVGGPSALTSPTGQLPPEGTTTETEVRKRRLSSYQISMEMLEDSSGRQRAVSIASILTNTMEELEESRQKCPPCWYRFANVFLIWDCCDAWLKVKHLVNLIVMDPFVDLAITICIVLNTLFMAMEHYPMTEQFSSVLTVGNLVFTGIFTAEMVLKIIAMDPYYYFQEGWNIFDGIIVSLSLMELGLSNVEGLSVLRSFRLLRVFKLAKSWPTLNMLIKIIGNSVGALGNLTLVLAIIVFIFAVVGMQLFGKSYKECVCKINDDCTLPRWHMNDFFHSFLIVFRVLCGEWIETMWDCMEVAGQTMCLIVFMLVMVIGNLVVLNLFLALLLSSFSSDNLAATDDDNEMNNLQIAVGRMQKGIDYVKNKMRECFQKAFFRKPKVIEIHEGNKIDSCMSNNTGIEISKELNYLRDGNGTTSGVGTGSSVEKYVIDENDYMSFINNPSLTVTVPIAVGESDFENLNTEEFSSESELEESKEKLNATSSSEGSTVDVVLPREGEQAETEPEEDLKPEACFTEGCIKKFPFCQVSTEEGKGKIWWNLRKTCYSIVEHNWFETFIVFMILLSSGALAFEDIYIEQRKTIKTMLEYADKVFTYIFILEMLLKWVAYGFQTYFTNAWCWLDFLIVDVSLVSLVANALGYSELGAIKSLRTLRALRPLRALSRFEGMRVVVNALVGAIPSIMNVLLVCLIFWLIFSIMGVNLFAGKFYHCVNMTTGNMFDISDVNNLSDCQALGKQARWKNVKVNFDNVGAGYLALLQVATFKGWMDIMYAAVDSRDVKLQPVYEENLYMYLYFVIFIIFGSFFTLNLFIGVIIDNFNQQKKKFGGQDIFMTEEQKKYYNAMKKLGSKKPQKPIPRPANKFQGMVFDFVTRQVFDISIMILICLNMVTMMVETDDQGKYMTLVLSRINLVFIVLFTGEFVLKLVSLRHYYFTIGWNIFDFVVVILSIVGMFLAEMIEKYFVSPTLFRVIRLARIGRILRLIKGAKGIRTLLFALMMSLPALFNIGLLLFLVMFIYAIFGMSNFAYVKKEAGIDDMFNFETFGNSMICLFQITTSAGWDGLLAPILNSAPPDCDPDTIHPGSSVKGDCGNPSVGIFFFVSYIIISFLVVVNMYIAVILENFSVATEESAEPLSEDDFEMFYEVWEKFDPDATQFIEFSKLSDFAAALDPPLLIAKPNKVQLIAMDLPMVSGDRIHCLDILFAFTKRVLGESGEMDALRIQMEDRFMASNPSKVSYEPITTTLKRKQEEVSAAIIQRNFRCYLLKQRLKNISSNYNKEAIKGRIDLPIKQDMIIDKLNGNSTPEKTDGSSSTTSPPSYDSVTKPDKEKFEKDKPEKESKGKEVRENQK
# human Nav1.3 voltage-gated sodium channel (human), sequence (Q9NY46 whole entry): as above
# human Nav1.4 voltage-gated sodium channel (human), sequence (P35499 whole entry): as the sequence (P35499 whole entry) above
# human Nav1.3 (human), sequence (Q9NY46 whole entry): as the sequence (Q9NY46 whole entry) above
# human ERG (hERG) potassium channel (human), sequence (Q12809 whole entry): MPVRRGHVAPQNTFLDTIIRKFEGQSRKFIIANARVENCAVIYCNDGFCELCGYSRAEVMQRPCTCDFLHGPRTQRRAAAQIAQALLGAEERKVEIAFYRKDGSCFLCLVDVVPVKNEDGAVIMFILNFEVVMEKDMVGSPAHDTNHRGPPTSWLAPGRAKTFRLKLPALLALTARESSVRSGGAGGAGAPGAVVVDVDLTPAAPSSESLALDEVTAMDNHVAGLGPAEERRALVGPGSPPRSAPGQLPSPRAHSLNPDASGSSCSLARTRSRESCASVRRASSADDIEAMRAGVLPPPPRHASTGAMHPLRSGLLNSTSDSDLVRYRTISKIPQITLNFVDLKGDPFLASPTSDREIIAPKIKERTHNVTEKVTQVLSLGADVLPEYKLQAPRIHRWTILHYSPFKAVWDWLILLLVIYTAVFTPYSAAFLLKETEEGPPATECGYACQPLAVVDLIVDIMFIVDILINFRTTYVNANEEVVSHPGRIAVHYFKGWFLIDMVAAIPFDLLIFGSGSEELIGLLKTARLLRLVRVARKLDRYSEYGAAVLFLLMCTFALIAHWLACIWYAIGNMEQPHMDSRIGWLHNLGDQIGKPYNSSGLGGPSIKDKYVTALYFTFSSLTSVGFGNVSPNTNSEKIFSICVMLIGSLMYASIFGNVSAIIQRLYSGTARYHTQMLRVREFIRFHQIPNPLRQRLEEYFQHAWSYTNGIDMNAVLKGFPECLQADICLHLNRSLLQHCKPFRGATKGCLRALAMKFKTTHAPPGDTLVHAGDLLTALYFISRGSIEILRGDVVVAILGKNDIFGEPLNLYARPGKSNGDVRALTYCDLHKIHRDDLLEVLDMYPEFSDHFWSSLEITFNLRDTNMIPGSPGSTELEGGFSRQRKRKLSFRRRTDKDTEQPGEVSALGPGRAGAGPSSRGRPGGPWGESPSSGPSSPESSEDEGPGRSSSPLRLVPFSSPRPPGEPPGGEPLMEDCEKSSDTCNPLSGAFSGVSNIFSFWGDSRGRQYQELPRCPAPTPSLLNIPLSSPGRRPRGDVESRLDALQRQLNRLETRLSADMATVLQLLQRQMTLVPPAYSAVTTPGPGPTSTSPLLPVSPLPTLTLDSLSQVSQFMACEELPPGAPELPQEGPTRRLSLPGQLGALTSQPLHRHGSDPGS
substance,measurement,setting,value
Ac-GpTx-1(1-34) (peptide),"Nav1.5 Use IC50 (µM), PatchXpress electrophysiology",[1],> 10 µM
GpTx-1(1-34) (peptide),IWQ Use Nav1.3,[2],0.08 µM
same,IWQ Use Nav1.5,[3],13.1 µM
same,IWQ Use Nav1.7,[4],0.08 µM
same,IWQ Use Nav1.3,[5],0.08 µM
same,IWQ Use Nav1.3,[6],0.08 µM
same,IWQ Use Nav1.5,[7],13.1 µM
same,IWQ Use Nav1.7,[8],0.08 µM
same,"IWQ Use Nav1.3 (µM) (IC50, IonWorks Quattro population patch clamp)",[9],0.08 µM
same,"IWQ Use Nav1.5 (µM) (IC50, IonWorks Quattro population patch clamp)",[10],13.1 µM
same,"IWQ Use Nav1.7 (µM) (IC50, IonWorks Quattro population patch clamp)",[11],0.08 µM
same,"IWQ Use Nav1.3 (µM); IC50 of peak inward current, IonWorks Quattro",[12],0.08 µM
same,"IWQ Use Nav1.5 (µM); IC50 of peak inward current, IonWorks Quattro",[13],13.1 µM
same,"IWQ Use Nav1.7 (µM); IC50 of peak inward current, IonWorks Quattro",[14],0.08 µM
same,IWQ Use Nav1.3,[15],0.08 µM
same,IWQ Use Nav1.5,[16],13.1 µM
same,IWQ Use Nav1.7,[17],0.08 µM
same,IWQ Use Nav1.3,[18],0.08 µM
same,IWQ Use Nav1.5,[19],13.1 µM
same,IWQ Use Nav1.7,[20],0.08 µM
same,"IC50, hERG current, PatchXpress counterscreen",[21],> 10 µM
same,"IWQ Use Nav1.3 (µM) [IC50, IonWorks Quattro electrophysiology]",human Nav1.3 (human),0.08 µM
same,"IC50, peak inward hNav1.3 current, whole cell patch clamp, cells held at -140 mV",[22],16.8 nM
same,IWQ Use Nav1.3,[22],0.08 µM
same,"IWQ Use Nav1.3 (µM): IC50 of peak inward current block, IonWorks Quattro",[22],0.08 µM
same,"IWQ Use Nav1.3 (µM); IC50 of peak inward current, IonWorks Quattro",[22],0.08 µM
same,"IWQ Use Nav1.5 (µM) [IC50, IonWorks Quattro electrophysiology]",human Nav1.5 (human),13.1 µM
same,"IC50, hNav1.5 current, PatchXpress counterscreen",[1],9.8 µM
same,"IC50, peak inward hNav1.5 current, whole cell patch clamp, cells held at -140 mV",[1],8.9 µM
same,IWQ Use Nav1.5,[1],13.1 µM
same,"IWQ Use Nav1.5 (µM): IC50 of peak inward current block, IonWorks Quattro",[1],13.1 µM
same,"IWQ Use Nav1.5 (µM); IC50 of peak inward current, IonWorks Quattro",[1],13.1 µM
same,"IWQ Use Nav1.7 (µM) [IC50, IonWorks Quattro electrophysiology]",human Nav1.7 (human),0.08 µM
same,"IC50, peak inward hNav1.7 current, whole cell patch clamp, cells held at -140 mV",[23],7.4 nM
same,IWQ Use Nav1.7,[23],0.08 µM
same,"IWQ Use Nav1.7 (µM): IC50 of peak inward current block, IonWorks Quattro",[23],0.08 µM
same,"IWQ Use Nav1.7 (µM); IC50 of peak inward current, IonWorks Quattro",[23],0.08 µM
same,"inhibition of NaV1.7 activity, IonWorks Quattro, venom sub-fraction 11",[23],> 90%
same,IWQ Use Nav1.3,[24],0.08 µM
same,"IWQ Use Nav1.3 (µM) (IC50, IonWorks Quattro population patch clamp)",[24],0.08 µM
same,"IWQ Use Nav1.3 (µM): IC50 of peak inward current, IonWorks Quattro",[24],0.08 µM
same,"IWQ Use Nav1.3 (µM); IC50 of peak inward current, IonWorks Quattro",[24],0.08 µM
same,Nav1.3 Use IC50 (PatchXpress whole cell patch clamp),[24],0.01 µM
same,IWQ Use Nav1.5,[25],13.1 µM
same,"IWQ Use Nav1.5 (µM) (IC50, IonWorks Quattro population patch clamp)",[25],13.1 µM
same,"IWQ Use Nav1.5 (µM): IC50 of peak inward current, IonWorks Quattro",[25],13.1 µM
same,"IWQ Use Nav1.5 (µM); IC50 of peak inward current, IonWorks Quattro",[25],13.1 µM
same,Nav1.5 Use IC50 (PatchXpress whole cell patch clamp),[25],> 10 µM
same,IWQ Use Nav1.7,[26],0.08 µM
same,"IWQ Use Nav1.7 (µM) (IC50, IonWorks Quattro population patch clamp)",[26],0.08 µM
same,"IWQ Use Nav1.7 (µM): IC50 of peak inward current, IonWorks Quattro",[26],0.08 µM
same,"IWQ Use Nav1.7 (µM); IC50 of peak inward current, IonWorks Quattro",[26],0.08 µM
same,Nav1.7 Use IC50 (PatchXpress whole cell patch clamp),[26],5 nM
same,Nav1.7 Use IC50 (µM); PatchXpress whole cell patch clamp electrophysiology,[26],0.005 µM
GpTx-1(1-34)-FreeAcid (peptide),"IWQ Use Nav1.3 (µM) (IC50, IonWorks Quattro population patch clamp)",[24],0.54 µM
same,"IWQ Use Nav1.5 (µM) (IC50, IonWorks Quattro population patch clamp)",[25],9.44 µM
GpTx-2 (peptide),IWQ Use Nav1.3,[18],1.15 µM
same,IWQ Use Nav1.5,[19],7.21 µM
same,IWQ Use Nav1.7,[20],4.34 µM
GpTx-3 (peptide),IWQ Use Nav1.3,[18],9.37 µM
same,IWQ Use Nav1.4,[27],20 µM
same,IWQ Use Nav1.5,[19],7.8 µM
same,IWQ Use Nav1.7,[20],8.93 µM
GpTx-4 (peptide),IWQ Use Nav1.3,[18],4.92 µM
same,IWQ Use Nav1.4,[27],11 µM
same,IWQ Use Nav1.5,[19],10.4 µM
same,IWQ Use Nav1.7,[20],9.25 µM
GpTx-6(1-34) (peptide),IWQ Use Nav1.3,[18],0.54 µM
same,IWQ Use Nav1.4,[27],4.1 µM
same,IWQ Use Nav1.5,[19],7.3 µM
same,IWQ Use Nav1.7,[20],1.3 µM
GpTx-6(1-35) (peptide),IWQ Use Nav1.3,[18],1.7 µM
same,IWQ Use Nav1.4,[27],17.4 µM
same,IWQ Use Nav1.5,[19],14.6 µM
same,IWQ Use Nav1.7,[20],9.6 µM
Huwentoxin-I (peptide),Nav1.3 Use IC50 (PatchXpress whole cell patch clamp),[24],0.905 µM
same,Nav1.4 Use IC50 (PatchXpress whole cell patch clamp),[28],24.9 µM
same,Nav1.5 Use IC50 (PatchXpress whole cell patch clamp),[25],> 30 µM
Huwentoxin-IV (peptide),Nav1.3 Use IC50 (PatchXpress whole cell patch clamp),[24],0.022 µM
same,Nav1.4 Use IC50 (PatchXpress whole cell patch clamp),[28],4.5 µM
same,Nav1.7 Use IC50 (PatchXpress whole cell patch clamp),[26],32 nM
ProTxII (peptide),Nav1.3 Use IC50 (PatchXpress whole cell patch clamp),[24],0.015 µM
same,Nav1.4 Use IC50 (PatchXpress whole cell patch clamp),[28],0.032 µM
same,Nav1.5 Use IC50 (PatchXpress whole cell patch clamp),[25],0.104 µM
same,Nav1.7 Use IC50 (PatchXpress whole cell patch clamp),[26],2 nM
[Ala5;Phe6;Leu26;Arg28]GpTx-1(1-34) (peptide),"IWQ Use Nav1.3 (µM); IC50 of peak inward current, IonWorks Quattro",[18],0.04 µM
same,"IWQ Use Nav1.4 (µM); IC50 of peak inward current, IonWorks Quattro",[27],5 µM
same,"IWQ Use Nav1.5 (µM); IC50 of peak inward current, IonWorks Quattro",[19],5 µM
same,"IWQ Use Nav1.7 (µM); IC50 of peak inward current, IonWorks Quattro",[20],0.05 µM
same,Nav1.3 Use IC50 (PatchXpress electrophysiology),[24],0.008 µM
same,Nav1.5 Use IC50 (PatchXpress electrophysiology),[25],> 10 µM
same,Nav1.7 Use IC50 (PatchXpress electrophysiology),[26],0.002 µM
[D-Phe5]GpTx-1(1-34) (peptide),"IWQ Use Nav1.7 (µM): IC50 of peak inward current, IonWorks Quattro",[23],1.23 µM
[D-Phe34]GpTx-1(1-34) (peptide),IWQ Use Nav1.3,[15],0.52 µM
same,IWQ Use Nav1.5,[16],20.7 µM
same,IWQ Use Nav1.7,[17],0.98 µM
